Experimental data published in paper PMC3902945 (Nucleic Acids Research, 2013).

B1: uracil-DNA glycosylase inhibitor from phage PBS2 (UGI) (natural protein)
chain: MTNLSDIIEKETGKQLVIQESILMLPEEVEEVIGNKPESDILVHTAYDESTDENVMLLTSDAPEYKPWALVIQDSNGENKIKML

Experiments:
Experiment in all cases: SPR
[1] = target: C-terminal His6-tagged human UDG (uracil-DNA glycosylase) (human)
[2] = target: C-terminal His6-tagged SAUDG (S. aureus uracil-DNA glycosylase) (S. aureus) (UniProt Q6GJ88)
[3] = target: T1, C-terminal His6-tagged SAUDG (S. aureus uracil-DNA glycosylase) (S. aureus, UniProt Q6GJ88 1-218)
T1 sequence (looked up): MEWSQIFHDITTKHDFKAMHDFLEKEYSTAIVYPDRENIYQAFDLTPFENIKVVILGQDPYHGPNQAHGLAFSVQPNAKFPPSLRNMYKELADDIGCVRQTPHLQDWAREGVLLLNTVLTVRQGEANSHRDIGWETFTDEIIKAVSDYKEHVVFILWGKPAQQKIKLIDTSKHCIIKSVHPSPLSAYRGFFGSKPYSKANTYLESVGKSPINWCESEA

Row | Molecule | Kd [1] | koff [1] | kon [1] | Kd [2] | koff [2] | kon [2] | Kd [3] | koff [3] | kon [3]
1 | tag-free SAUGI (Staphylococcus aureus uracil-DNA glycosylase inhibitor) (natural protein) | 2.51 nM | 0.00124 s⁻¹ | 496000 M⁻¹ s⁻¹ | 1.2 nM | 0.00296 s⁻¹ | 2.47e+06 M⁻¹ s⁻¹ |  |  | 
2 | uracil-DNA glycosylase inhibitor from phage PBS2 (UGI) (from UniProt P14739 1-84) (natural protein) | 0.189 nM | 0.00119 s⁻¹ | 6.32e+06 M⁻¹ s⁻¹ |  |  |  |  |  | 
3 | B1 |  |  |  |  |  |  | 0.685 ± 0.08 nM | 0.0061 ± 0.00068 s⁻¹ | 8.9e+06 ± 419000 M⁻¹ s⁻¹
